Measurements reported in patent US20130017199A1, “SIMULTANEOUS INHIBITION OF PD-L1/PD-L2” (AMPLIMMUNE ,Inc. a corporation, priority 2009, published 2013).

Experiments:
[1] = system: CT26 colorectal tumor cells; assay: Established CT26 tumor model, eradication and rechallenge; settings: CTX alone, 100 mg/kg on day 10
[2] = molecular target: mouse PD-1-Ig (extracellular domain of mouse PD-1 linked to the Fc portion of mouse IgG2a) (mouse) (UniProt Q02242); assay: capture ELISA; PD-1-Ig coated on plate, COS supernatant, anti-human IgG-HRP
UniProt Q02242, sequence (Q02242 25-169): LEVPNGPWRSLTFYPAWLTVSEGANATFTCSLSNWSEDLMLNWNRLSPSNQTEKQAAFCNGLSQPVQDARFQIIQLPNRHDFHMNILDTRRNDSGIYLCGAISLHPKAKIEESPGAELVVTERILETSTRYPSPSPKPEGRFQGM

Binding activity ELISA (%) [2] | Compound | outcome of tumor bearing mice [1]
– | O=P1(N(CCCl)CCCl)NCCCO1 (stereo not drawn) [CTX, cyclophosphamide] | died as a result of tumor growth or were euthanized
2% | mouse B7-H1-Ig F67A (from UniProt Q9EP73 19-239) (Fc fusion) | –
3% | mouse B7-H1-Ig I115A (from UniProt Q9EP73 19-239) (Fc fusion) | –
